First the molecules themselves.
B1: Hairpin Ribozyme (parent)
chain: GUCCUCUUUCACGUGCGCGUGAAAGAGAGAAGUGAACCAGAGAAACACACGUUGUGGUAUAUUACCUGGUA

The data set covers variants of B1. Kind of data set: self-cleavage, relative activity (ratio to wild type); higher = more cleavage; co-transcriptional.
For GUCCUCUUUCACGCGCGCUUGAAAGAGAGAAGUGAACCAGAGAAACACACGUUGUGGUAUAUUACCUGGUA [U14C G19U], the self-cleavage amounted to 0.88.

In the case of GUCCUCUUUCACGCGCGCCUGAAAGAGAGAAGUGAACCAGAGAAACACACGUUGUGGUAUAUUACCUGGUA [U14C G19C], the self-cleavage is 0.79.

As for GUCCUCUUUCACGCGCGCGUGAAAGAGAGAAGUGAACCAGAGAAACACACGUUGUGGUAUAUUACCUGGUU [U14C A71U], the self-cleavage came out at 0.87.

GUCCUCUUUCACGCGCGCGUGAAAGAGAGAAGUGAAUCAGAGAAACACACGUUGUGGUAUAUUACCUGGUA [U14C C37U]: the self-cleavage was determined as 0.376.

As for GUCCUCUUUCACGCGCGCGUGAAAGAGAGAAGUGAACCCGAGAAACACACGUUGUGGUAUAUUACCUGGUA [U14C A39C], the self-cleavage was found to be 0.475.

With GUCCUCUUUCACGCGCGCGUGAAAGAGAGAAGUGAACCGGAGAAACACACGUUGUGGUAUAUUACCUGGUA [U14C A39G], the self-cleavage came out at 0.243.

In the case of GUCCUCUUUCACGCGCGCGUGAAAGAGAGAAGUGAACCAGAGAAACACACGUUGUGGUAUAUUAACUGGUA [U14C C65A], the self-cleavage is 0.93.

With GUCCUCUUUCACGCGCGCGUGAAAGAGAGAAGUGAACCAGAGAAACACACGUUGUGGUAUAUUAGCUGGUA [U14C C65G], the self-cleavage was 0.214.

GUCCUCUUUCACGCGCGCGUGAAAGAGAGAAGUGAACCAGAGAAACACACGUUGUGGAAUAUUACCUGGUA [U14C U58A]: the self-cleavage amounted to 0.763.

For GUCCUCUUUCACGCGCGCGUGAAAGAGAGAAGUGAACCAGAGAAACACACGUUGUGGCAUAUUACCUGGUA [U14C U58C], the self-cleavage was found to be 0.78.

For the variant GUCCUCUUUCACGCGCGCGUGAAAGAGAGAAGUGAACCAGAGAAACACACGAUGUGGUAUAUUACCUGGUA [U14C U52A], the self-cleavage worked out at 1.03.

On to GUCCUCUUUCACGCGCGCGUGAAAGAGAGAAGUGAACCAGAGAAACACACGGUGUGGUAUAUUACCUGGUA [U14C U52G], for which the self-cleavage was determined as 0.512.

GUCCUCUUUCACGCGCGCGUUAAAGAGAGAAGUGAACCAGAGAAACACACGUUGUGGUAUAUUACCUGGUA [U14C G21U]: the self-cleavage turned out to be 0.702.

In the case of GUCCUCUUUCACGCACGCGUGAAAGAGAGAAGUGAACCAGAGAAACACACGUUGUGGUAUAUUACCUGGUA [U14C G15A], the self-cleavage came to 0.825.

Regarding GUCCUCUUUCACGCCCGCGUGAAAGAGAGAAGUGAACCAGAGAAACACACGUUGUGGUAUAUUACCUGGUA [U14C G15C], the self-cleavage stood at 0.932.

As for GUCCUCUUUCACGCUCGCGUGAAAGAGAGAAGUGAACCAGAGAAACACACGUUGUGGUAUAUUACCUGGUA [U14C G15U], the self-cleavage worked out at 0.926.

Consider GUCCUCUUUCACGCGCGCGUGAAAGAGAGAAGUGAACCAGAGAAACACACGUUGUGGUGUAUUACCUGGUA [U14C A59G], for which the self-cleavage was found to be 0.0434.

GUCCUCUUUCACGCGCGCGUGAAAGAGAGAAGUGAACCAGAGAAACACACGUUGUGGUUUAUUACCUGGUA [U14C A59U]: the self-cleavage came out at 0.081.

Turning to GUCCUCUUUCACGCGCGCGUGAAAGAGAGAAGUGAACCAGAGAAACACACGUUGUGGUAUAUAACCUGGUA [U14C U63A], the self-cleavage was 0.

For GUCCUCUUUCACGCGCGCGUGAAAGAGAGAAGUGAACCAGAGAAACACACGUUGUGGUAUAUCACCUGGUA [U14C U63C], the self-cleavage was 0.392.

Consider GUCCUCUUUCACGCGCGCGUGAAAGAGAGAAGUGAACCAGAGAAACACACGUUGUGUUAUAUUACCUGGUA [U14C G57U], for which the self-cleavage came to 0.265.

For GUCCUCUUUCACGCGUGCGUGAAAGAGAGAAGUGAACCAGAGAAACACACGUUGUGGUAUAUUACCUGGUA [U14C C16U], the self-cleavage stood at 0.728.

As for GUCCUCUUUCACGCGCGCGUGAAAGAGAGAAGAGAACCAGAGAAACACACGUUGUGGUAUAUUACCUGGUA [U14C U33A], the self-cleavage came to 0.0608.

In the case of GUCCUCUUUCACGCGCGCGUGAAAGAGAGAAGUGAACCAGAGAAACACAGGUUGUGGUAUAUUACCUGGUA [U14C C50G], the self-cleavage was determined as 0.268.

Consider GUCCUCUUUCACGCGCGCGUGAAAGAGAGAAGUGAACAAGAGAAACACACGUUGUGGUAUAUUACCUGGUA [U14C C38A], for which the self-cleavage is 0.0751.

As to GUCCUCUUUCACGCGCGCGUGAAAGAGAGAAAUGAACCAGAGAAACACACGUUGUGGUAUAUUACCUGGUA [U14C G32A], the self-cleavage was found to be 0.0498.

With GUCCUCUUUCACGCGCGCGUGAAAGAGAGAAGUGAACCAGAGAAACACACGUUGUGGUAAAUUACCUGGUA [U14C U60A], the self-cleavage worked out at 0.795.

Turning to GUCCUCUUUCACGCGCGCGUGAAAGAGAGAAGUGAACCAGAGAAACACACGUUGUGGUAUAUUACCUCGUA [U14C G68C], the self-cleavage was determined as 0.212.

Turning to GUCCUCUUUCACGCGCGCGUGUAAGAGAGAAGUGAACCAGAGAAACACACGUUGUGGUAUAUUACCUGGUA [U14C A22U], the self-cleavage was found to be 1.06.

For GUCCUCUUUCACGCGCGCGUGCAAGAGAGAAGUGAACCAGAGAAACACACGUUGUGGUAUAUUACCUGGUA [U14C A22C], the self-cleavage is 0.832.

On to GUCCUCUUUCACGCGCGCGUGAAAGAGAGACGUGAACCAGAGAAACACACGUUGUGGUAUAUUACCUGGUA [U14C A31C], for which the self-cleavage amounted to 0.0434.

As for GUCCUCUUUCACGCGCGCGUGAAAGAGAGAUGUGAACCAGAGAAACACACGUUGUGGUAUAUUACCUGGUA [U14C A31U], the self-cleavage is 0.0592.

For GUCCUCUUUCACGAGCGCGUGAAAGAGAGAAGUGAACCAGAGAAACACACGUUGUGGUAGAUUACCUGGUA [U14A U60G], the self-cleavage turned out to be 0.614.

Consider GUCCUCUUUCACGCGCGCGUGAAAGAGAGAAGUGGACCAGAGAAACACACGUUGUGGUAUAUUACCUGGUA [U14C A35G], for which the self-cleavage was found to be 0.953.

Consider GUCCUCUUUCACGCGCGCGUGAAAGAGAGAAGUGUACCAGAGAAACACACGUUGUGGUAUAUUACCUGGUA [U14C A35U], for which the self-cleavage worked out at 0.713.

For GUCCUCUUUCACGCGCGCGUGAAAGAGAGAAGUGAACCAGAGAGACACACGUUGUGGUAUAUUACCUGGUA [U14C A44G], the self-cleavage worked out at 0.155.

As for GUCCUCUUUCACGCGCGCGAGAAAGAGAGAAGUGAACCAGAGAAACACACGUUGUGGUAUAUUACCUGGUA [U14C U20A], the self-cleavage was found to be 0.774.

As to GUCCUCUUUCACGCGCGCGGGAAAGAGAGAAGUGAACCAGAGAAACACACGUUGUGGUAUAUUACCUGGUA [U14C U20G], the self-cleavage worked out at 1.09.

Source of the values: the RNAGym collection of RNA variant scans (doi:10.7554/elife.80360).
